{
  "source": "paper PMC5493759",
  "about": "“Neurovascular EGFL7 regulates adult neurogenesis in the subventricular zone and thereby affects olfactory perception” (Nature Communications, 2017)",
  "experiment_in_all_cases": "co-IP; Flag-tagged EGFL7 co-expressed with V5-tagged Notch ECDs or Notch1-ECD deletion mutants in HEK293; lysate immunoprecipitated with Immunosorb A overnight at 4 °C; quantitative western blot (Odyssey); n=3",
  "key": {"[1]": {"molecular_target": "T1, V5-tagged Notch2 extracellular domain (UniProt O35516 26-1679)", "T1 construct": "Notch2, extracellular domain; source: HEK293, transiently transfected, in lysate", "T1 sequence (O35516 26-1679)": "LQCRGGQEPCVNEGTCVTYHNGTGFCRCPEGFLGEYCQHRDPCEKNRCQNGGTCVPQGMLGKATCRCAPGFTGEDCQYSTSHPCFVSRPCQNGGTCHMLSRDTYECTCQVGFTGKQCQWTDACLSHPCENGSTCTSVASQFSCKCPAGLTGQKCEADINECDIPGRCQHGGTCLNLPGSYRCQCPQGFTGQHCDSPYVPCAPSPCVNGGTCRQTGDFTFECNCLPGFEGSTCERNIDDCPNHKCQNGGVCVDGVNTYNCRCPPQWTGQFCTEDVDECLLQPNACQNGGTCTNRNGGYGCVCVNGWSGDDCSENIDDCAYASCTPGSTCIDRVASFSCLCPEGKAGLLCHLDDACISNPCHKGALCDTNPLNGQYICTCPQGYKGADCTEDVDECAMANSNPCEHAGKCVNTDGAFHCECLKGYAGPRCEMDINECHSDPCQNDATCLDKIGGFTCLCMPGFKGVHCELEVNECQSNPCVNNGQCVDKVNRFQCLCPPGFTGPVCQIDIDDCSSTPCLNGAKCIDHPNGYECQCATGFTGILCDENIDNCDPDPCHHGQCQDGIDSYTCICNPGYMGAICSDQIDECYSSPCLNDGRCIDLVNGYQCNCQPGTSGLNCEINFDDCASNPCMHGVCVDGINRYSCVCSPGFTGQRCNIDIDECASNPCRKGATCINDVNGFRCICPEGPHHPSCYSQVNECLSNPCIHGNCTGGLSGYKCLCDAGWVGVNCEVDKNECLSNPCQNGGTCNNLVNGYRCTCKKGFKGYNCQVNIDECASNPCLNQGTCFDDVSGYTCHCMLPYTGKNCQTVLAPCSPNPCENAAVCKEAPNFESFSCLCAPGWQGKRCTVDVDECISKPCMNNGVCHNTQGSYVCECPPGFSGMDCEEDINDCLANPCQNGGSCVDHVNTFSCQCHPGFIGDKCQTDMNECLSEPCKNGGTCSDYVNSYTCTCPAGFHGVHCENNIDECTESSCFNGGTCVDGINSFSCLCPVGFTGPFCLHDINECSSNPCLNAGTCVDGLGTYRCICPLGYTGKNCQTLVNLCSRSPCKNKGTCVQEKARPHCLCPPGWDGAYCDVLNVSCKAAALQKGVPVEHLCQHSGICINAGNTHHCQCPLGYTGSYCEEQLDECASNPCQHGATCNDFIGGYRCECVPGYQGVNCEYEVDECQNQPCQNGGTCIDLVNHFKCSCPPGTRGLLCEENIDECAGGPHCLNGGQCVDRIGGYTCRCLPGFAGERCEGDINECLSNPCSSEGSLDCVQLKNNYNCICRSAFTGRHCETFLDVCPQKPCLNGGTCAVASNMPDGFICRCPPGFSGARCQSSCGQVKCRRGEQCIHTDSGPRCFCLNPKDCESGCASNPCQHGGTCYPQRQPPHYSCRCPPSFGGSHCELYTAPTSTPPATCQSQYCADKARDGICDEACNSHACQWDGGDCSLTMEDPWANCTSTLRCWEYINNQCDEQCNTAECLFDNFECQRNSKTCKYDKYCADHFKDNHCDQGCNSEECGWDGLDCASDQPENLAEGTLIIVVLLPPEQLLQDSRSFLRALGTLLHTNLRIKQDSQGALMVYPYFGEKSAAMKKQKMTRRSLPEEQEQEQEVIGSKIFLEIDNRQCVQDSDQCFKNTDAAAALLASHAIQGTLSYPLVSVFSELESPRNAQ", "settings": "partners not purified"}, "[2]": {"molecular_target": "T2, V5-tagged Notch4 extracellular domain (UniProt P31695 21-1443)", "T2 construct": "Notch4, extracellular domain; source: HEK293, transiently transfected, in lysate", "T2 sequence (looked up)": "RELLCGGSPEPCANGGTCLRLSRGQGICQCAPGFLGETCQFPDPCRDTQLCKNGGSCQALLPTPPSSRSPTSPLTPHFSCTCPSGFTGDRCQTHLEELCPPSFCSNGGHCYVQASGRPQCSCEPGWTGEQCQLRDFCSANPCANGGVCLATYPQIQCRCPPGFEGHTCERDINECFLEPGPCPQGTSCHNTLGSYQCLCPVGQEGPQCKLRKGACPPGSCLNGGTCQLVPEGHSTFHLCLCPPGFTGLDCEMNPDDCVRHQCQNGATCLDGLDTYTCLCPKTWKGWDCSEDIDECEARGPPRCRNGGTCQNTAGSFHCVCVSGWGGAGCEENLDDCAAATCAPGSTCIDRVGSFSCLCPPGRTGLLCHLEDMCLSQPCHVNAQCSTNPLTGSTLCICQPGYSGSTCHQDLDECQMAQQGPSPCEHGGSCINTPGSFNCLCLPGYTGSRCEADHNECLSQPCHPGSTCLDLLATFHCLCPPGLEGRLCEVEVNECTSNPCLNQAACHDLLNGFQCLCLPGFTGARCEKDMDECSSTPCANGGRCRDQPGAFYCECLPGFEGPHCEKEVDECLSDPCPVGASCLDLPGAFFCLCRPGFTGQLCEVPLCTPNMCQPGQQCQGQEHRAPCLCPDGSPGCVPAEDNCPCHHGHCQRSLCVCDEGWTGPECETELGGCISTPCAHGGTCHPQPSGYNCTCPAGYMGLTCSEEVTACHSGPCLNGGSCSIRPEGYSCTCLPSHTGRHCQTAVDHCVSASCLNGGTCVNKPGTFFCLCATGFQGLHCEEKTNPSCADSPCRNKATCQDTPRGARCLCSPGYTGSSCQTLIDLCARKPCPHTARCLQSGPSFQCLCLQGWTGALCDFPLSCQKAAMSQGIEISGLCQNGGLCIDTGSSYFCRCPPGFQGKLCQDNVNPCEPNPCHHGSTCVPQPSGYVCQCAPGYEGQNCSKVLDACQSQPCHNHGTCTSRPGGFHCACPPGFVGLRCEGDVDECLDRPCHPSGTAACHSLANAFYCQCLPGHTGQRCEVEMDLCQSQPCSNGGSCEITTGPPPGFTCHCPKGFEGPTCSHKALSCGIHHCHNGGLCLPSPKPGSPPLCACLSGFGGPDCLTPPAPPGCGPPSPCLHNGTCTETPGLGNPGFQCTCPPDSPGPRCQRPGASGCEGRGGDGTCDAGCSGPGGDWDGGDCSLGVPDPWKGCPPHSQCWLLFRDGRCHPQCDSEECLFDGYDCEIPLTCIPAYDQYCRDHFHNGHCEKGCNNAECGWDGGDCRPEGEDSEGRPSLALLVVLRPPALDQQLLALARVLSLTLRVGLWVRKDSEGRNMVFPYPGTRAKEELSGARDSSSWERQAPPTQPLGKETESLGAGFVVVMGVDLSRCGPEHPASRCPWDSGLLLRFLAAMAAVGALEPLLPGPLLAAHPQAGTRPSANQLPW", "settings": "partners not purified"}, "[3]": {"molecular_target": "T3, V5-tagged Notch3 extracellular domain (UniProt Q61982 40-1643)", "T3 construct": "Notch3, extracellular domain; source: HEK293, transiently transfected, in lysate", "T3 sequence (Q61982 40-1643)": "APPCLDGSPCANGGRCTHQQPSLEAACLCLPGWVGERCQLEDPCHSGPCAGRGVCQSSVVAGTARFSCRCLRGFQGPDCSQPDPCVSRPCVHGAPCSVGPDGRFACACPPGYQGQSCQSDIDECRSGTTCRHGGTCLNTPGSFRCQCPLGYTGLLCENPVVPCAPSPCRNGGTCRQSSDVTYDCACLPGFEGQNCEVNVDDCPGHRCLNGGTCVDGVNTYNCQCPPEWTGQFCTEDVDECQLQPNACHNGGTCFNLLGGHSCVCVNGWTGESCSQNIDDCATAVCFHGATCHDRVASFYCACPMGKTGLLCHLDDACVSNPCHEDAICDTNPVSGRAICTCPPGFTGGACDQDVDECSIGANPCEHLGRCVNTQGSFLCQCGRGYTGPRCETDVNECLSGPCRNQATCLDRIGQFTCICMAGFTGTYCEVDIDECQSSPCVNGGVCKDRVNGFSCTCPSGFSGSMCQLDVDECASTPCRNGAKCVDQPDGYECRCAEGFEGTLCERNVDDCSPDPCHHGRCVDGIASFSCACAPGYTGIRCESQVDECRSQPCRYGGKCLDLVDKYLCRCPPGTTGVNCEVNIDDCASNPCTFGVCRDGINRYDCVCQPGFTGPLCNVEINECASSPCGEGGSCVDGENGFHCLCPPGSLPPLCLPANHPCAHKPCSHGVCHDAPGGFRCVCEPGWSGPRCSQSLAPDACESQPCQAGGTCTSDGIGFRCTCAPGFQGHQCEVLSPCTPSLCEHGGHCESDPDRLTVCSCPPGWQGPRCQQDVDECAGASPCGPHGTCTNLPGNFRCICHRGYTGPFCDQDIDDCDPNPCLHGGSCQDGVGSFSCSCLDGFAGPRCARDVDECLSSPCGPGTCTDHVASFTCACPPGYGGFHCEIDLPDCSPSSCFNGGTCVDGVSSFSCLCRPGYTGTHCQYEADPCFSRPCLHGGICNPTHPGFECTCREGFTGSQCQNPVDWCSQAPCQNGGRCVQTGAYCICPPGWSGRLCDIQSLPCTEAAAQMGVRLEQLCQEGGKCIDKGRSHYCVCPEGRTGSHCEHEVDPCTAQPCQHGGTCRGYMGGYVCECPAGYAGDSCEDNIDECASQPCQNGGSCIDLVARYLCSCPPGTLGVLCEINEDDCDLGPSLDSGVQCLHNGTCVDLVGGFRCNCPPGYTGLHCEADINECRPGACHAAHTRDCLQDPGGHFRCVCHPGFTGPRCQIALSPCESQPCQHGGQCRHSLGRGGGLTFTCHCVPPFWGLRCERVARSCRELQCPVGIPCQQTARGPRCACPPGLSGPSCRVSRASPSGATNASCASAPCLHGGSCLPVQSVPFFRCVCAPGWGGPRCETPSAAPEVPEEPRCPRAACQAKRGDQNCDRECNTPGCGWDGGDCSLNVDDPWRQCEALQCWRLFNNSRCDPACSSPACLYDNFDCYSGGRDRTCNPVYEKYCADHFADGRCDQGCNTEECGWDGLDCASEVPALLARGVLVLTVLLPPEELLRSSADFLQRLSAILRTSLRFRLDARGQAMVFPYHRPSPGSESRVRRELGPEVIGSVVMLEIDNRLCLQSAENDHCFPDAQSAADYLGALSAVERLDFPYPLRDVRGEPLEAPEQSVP", "settings": "partners not purified"}, "[4]": {"molecular_target": "V5-tagged Notch1-ECD deletion mutant Notch1-Δ5–10 (UniProt Q01705)", "sequence (Q01705 19-1725, stated change not applied)": "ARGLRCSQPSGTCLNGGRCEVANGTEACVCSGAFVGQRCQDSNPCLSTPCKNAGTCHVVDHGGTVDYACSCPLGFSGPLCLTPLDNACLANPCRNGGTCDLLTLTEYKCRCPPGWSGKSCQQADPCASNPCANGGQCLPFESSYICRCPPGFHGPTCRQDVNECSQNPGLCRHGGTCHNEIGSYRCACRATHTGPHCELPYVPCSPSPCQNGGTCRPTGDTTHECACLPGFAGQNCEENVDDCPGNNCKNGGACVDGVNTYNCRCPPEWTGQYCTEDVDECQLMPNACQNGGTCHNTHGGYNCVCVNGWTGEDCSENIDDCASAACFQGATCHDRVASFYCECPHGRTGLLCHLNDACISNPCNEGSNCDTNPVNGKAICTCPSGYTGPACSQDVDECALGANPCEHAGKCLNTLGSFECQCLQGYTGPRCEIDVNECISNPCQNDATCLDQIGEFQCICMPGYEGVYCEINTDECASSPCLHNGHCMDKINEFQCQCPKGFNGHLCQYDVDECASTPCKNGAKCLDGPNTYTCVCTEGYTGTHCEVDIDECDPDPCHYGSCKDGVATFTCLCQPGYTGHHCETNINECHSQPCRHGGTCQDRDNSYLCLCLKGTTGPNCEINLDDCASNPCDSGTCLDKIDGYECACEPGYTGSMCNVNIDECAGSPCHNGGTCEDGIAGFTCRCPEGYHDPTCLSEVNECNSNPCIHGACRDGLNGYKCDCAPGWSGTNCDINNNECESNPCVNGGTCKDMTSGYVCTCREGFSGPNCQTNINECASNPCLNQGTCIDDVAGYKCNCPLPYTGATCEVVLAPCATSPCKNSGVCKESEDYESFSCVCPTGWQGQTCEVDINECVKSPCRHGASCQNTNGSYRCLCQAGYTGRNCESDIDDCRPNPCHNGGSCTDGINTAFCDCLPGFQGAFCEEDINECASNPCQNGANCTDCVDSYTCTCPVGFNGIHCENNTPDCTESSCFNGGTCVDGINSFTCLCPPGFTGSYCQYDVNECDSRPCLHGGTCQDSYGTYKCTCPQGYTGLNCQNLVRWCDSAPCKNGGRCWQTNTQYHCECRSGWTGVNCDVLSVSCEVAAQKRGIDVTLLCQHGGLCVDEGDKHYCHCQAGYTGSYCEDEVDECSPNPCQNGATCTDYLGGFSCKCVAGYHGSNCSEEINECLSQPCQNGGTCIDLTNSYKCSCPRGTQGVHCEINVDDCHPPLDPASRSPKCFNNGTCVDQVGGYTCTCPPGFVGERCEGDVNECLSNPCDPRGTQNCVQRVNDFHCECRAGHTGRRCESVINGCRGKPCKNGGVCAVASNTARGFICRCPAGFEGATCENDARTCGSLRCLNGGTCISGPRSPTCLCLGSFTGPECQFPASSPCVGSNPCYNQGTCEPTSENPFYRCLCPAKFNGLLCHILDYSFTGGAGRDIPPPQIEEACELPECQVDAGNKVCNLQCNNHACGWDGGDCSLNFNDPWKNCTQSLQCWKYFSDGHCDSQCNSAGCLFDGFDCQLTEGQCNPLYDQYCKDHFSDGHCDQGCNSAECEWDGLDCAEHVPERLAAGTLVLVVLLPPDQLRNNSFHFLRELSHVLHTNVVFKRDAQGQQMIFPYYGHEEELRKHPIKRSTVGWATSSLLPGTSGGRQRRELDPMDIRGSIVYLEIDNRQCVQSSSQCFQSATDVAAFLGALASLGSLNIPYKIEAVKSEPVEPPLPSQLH"}, "[5]": {"molecular_target": "V5-tagged Notch1-ECD deletion mutant Notch1-Δ11+12 (UniProt Q01705)", "sequence (Q01705 19-1725, stated change not applied)": "as above"}, "[6]": {"molecular_target": "V5-tagged Notch1-ECD deletion mutant Notch1-Δ8 (UniProt Q01705)", "sequence (Q01705 19-1725, stated change not applied)": "as above"}},
  "data": [
    {"binder": "Flag-tagged EGFL7 (epidermal growth factor-like protein 7) (natural protein, UniProt Q9QXT5 22-275, looked up, epidermal growth factor-like protein 7 (EGFL7); the same molecule is used here; source: HEK293, transiently transfected, in lysate) EHVYRPSRRVCTVGISGGSISETFVQRVYQPYLTTCDGHRACSTYRTIYRTAYRRSPGVTPARPRYACCPGWKRTSGLPGACGAAICQPPCGNGGSCIRPGHCRCPVGWQGDTCQTDVDECSTGEASCPQRCVNTVGSYWCQGWEGQSPSADGTRCLSKEGPSPVAPNPTAGVDSMAREEVYRLQARVDVLEQKLQLVLAPLHSLASRSTEHGLQDPGSLLAHSFQQLDRIDSLSEQVSFLEEHLGSCSCKKDL", "values": [
      {"measurement": "binding relative to Notch1-ECD", "setting": "[1]", "value": "~76", "unit": "%"},
      {"measurement": "binding relative to Notch1-ECD", "setting": "[2]", "value": "~35", "unit": "%"},
      {"measurement": "binding relative to Notch1-ECD", "setting": "[3]", "value": "~41", "unit": "%"},
      {"measurement": "change in binding relative to Notch1-ECD", "setting": "[4]", "value": -18, "unit": "%"},
      {"measurement": "change in binding relative to Notch1-ECD", "setting": "[5]", "value": -26, "unit": "%"},
      {"measurement": "change in binding relative to Notch1-ECD", "setting": "[6]", "value": -28, "unit": "%"}
    ]}
  ]
}
